For this experiment, the target named is T1, mouse α7 subunit of the 20S proteasome, full length (mouse, UniProt O70435 1-255).
T1 construct: also called a7; full length a7 construct
T1 sequence (looked up): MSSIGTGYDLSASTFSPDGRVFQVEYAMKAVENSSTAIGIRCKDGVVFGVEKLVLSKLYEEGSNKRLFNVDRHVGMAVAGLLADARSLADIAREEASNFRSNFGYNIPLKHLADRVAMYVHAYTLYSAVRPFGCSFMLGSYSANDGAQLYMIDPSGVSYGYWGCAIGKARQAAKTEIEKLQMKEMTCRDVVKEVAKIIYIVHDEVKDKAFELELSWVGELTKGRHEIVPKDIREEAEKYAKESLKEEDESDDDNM
Put plainly: yeast two-hybrid screen of a mouse cDNA library with PR-39 exon 4 as bait. The procedure: To identify possible intracellular targets of PR-39 peptide action, a yeast two-hybrid screen of mouse cDNA library was performed using the unique 4th exon DNA sequence of porcine PR-39 gene as "bait". […] All four clones encoded overlapping identical cDNA sequences which are highly homologous to the sequence of the human α7 (HC8) subunit of the 20S proteasome (GeneBank accession AF055983).

B1: porcine PR-39 peptide (4th exon, amino acids 131 to 169) in pAS2-1 vector as yeast two-hybrid bait (peptide, not shown: large carriers)
chain: RRRPRPPYLPRPRPPPFFPPRLPPRIPPGFPPRFPPRFP
notes: Bait of the yeast two-hybrid assay; The 39 residues are amino acids 131 to 169 of the porcine precursor; also called PR-39 construct
Regarding B1, the binding result was “binds”.
